A word on the EC50: it is the concentration that produces a half-maximal response. Usually IC50 stands for the concentration needed to halve the response being measured.

Positions count from the first letter of the chain named.

The chains are these.
B1: MHPD1-A-2 H Fc (Fc fusion, not shown: a dimerising Fc or GST; small tags and cut ends)
VHH: QVQLVESGGGLVQPGGSLRLSCAASGRFPSIYAMGWFRQAPGKGLEFVAGIGWRYATTYYADSVKGRFTISRDNTKNTLYLQMNSLRAEDTAVYYCAADLDHSGFDYWGQGTLVTVSS
B2: MHPD1-A-12 H Fc (Fc fusion, not shown: a dimerising Fc or GST; small tags and cut ends)
VHH: B1 VHH with R27S, F28D, P29Y, S30A, R54A, Y55F
B3: MHPD1-A-13 H Fc (Fc fusion)
chain: B1 VHH with G26H, R27A, F28D, R54N
notes: not shown: Fc
B4: MHPD1-A-6 H Fc (Fc fusion, not shown: a dimerising Fc or GST; small tags and cut ends)
VHH: B1 VHH with F28R, R54N
B5: MHPD1-A-8 H Fc (Fc fusion)
chain: B1 VHH with R27G, F28R, R54A, Y55F
notes: not shown: Fc
B6: MHPD1-A-10 H Fc (Fc fusion, not shown: a dimerising Fc or GST; small tags and cut ends)
VHH: B1 VHH with R27S, F28D, P29D, S30R
B7: MHPD1-A-9 H Fc (Fc fusion, not shown: a dimerising Fc or GST; small tags and cut ends)
VHH: B1 VHH with R27S, F28G, P29H, R54S
B8: MHPD1-A-11 H Fc (Fc fusion, not shown: a dimerising Fc or GST; small tags and cut ends)
VHH: B1 VHH with R27S, F28Q, P29L, Y55F
B9: MHPD1-A-5 H Fc (Fc fusion, not shown: a dimerising Fc or GST; small tags and cut ends)
VHH: B1 VHH with R27S, F28S, P29L, R54A
B10: MHPD1-A-1 H Fc (Fc fusion, not shown: a dimerising Fc or GST; small tags and cut ends)
VHH: B1 VHH with R27S, F28D, R54A, Y55W, H102R
B11: MHPD1-A-14 H Fc (Fc fusion, not shown: a dimerising Fc or GST; small tags and cut ends)
VHH: B1 VHH with G26S, R27H, F28R
B12: MHPD1-A-30 H Fc (Fc fusion)
chain: B1 VHH with A24T, R27V, F28R, P29R, R54A, T58Q, L100I
notes: not shown: Fc
B13: MHPD1-A-44 H Fc (Fc fusion)
chain: B1 VHH with A24T, R27S, F28R, P29T, S30R, R54A, T58E
notes: not shown: Fc
B14: MHPD1-A-20 H Fc (Fc fusion, not shown: a dimerising Fc or GST; small tags and cut ends)
VHH: B1 VHH with A24T, R27S, F28R, P29K, R54A
B15: MHPD1-A-46 H Fc (Fc fusion, not shown: a dimerising Fc or GST; small tags and cut ends)
VHH: B1 VHH with A24T, R27S, F28K, P29G, R54A, H102R
B16: MHPD1-A-23 H Fc (Fc fusion)
VHH: B1 VHH with A24T, R27T, F28R, P29R, R54A
notes: not shown: Fc region
B17: MHPD1-A-15 H Fc (Fc fusion)
chain: B1 VHH with A24T, R27L, F28R, P29R, R54A, A56S
notes: not shown: Fc
B18: MHPD1-A-45 H Fc (Fc fusion)
chain: B1 VHH with A24T, G26H, R27L, F28R, P29R, R54A
notes: not shown: Fc
B19: MHPD1-A-21 H Fc (Fc fusion, not shown: a dimerising Fc or GST; small tags and cut ends)
VHH: B1 VHH with A24T, R27S, F28R, P29R, R54A, T58S
B20: MHPD1-A-38 H Fc (Fc fusion, not shown: a dimerising Fc or GST; small tags and cut ends)
VHH: B1 VHH with A24T, R27N, F28R, P29R, R54A, H102R, S103R
B21: MHPD1-A-42 H Fc (Fc fusion)
chain: B1 VHH with A24T, R27S, F28R, P29Q, S30T, R54A, T58Q
notes: not shown: Fc
B22: MHPD1-A-39 H Fc (Fc fusion)
chain: B1 VHH with A24T, R27S, F28R, P29R, R54A, T58E
notes: not shown: Fc
B23: MHPD1-A-49 H Fc (Fc fusion, not shown: a dimerising Fc or GST; small tags and cut ends)
VHH: B1 VHH with A24T, R27S, F28R, P29R, R54A, H102R, S103V
B24: MHPD1-A-37 H Fc (Fc fusion, not shown: a dimerising Fc or GST; small tags and cut ends)
VHH: B1 VHH with A24T, R27A, F28R, P29R, R54A, H102R, S103T
B25: MHPD1-A-32 H Fc (Fc fusion)
chain: B1 VHH with A24T, G26K, R27N, F28R, P29R, R54A
notes: not shown: Fc
B26: MHPD1-A-43 H Fc (Fc fusion, not shown: a dimerising Fc or GST; small tags and cut ends)
VHH: B1 VHH with A24T, R27S, F28R, P29R, R54A, H102R, S103A
B27: MHPD1-A-H1 Fc (Fc fusion, not shown: a dimerising Fc or GST; small tags and cut ends)
VHH: QVQLVESGGGSVQPGGSLTLSCAASGSDPSIYAMGWFRQAPGKEHEFVAGIGWSAATTYYADSVKGRFGISRDNTKNTVALLMNSLKPEDTAIYYCAADLDHSGFDYWGQGTLVTVSS
notes: First round of humanization of MHPD1-A; also called humanized nanobody-Fc fusion protein
B28: MHPD1-A-H2 Fc (Fc fusion, not shown: a dimerising Fc or GST; small tags and cut ends)
VHH: B27 VHH with P14V, T19R, K87R, P88A, L113Q
notes: as for B27
B29: MHPD1-A-H6 Fc (Fc fusion, not shown: a dimerising Fc or GST; small tags and cut ends)
VHH: B27 VHH with P14V, G35M, L113Q
notes: as for B27
B30: MHPD1-A-H7 Fc (Fc fusion, not shown: a dimerising Fc or GST; small tags and cut ends)
VHH: B27 VHH with P14V, G35M, T75S, L113Q
notes: as for B27
B31: MHPD1-A-H10 Fc (Fc fusion, not shown: a dimerising Fc or GST; small tags and cut ends)
VHH: B27 VHH with T19R, G69T, V79L
notes: as for B27
B32: MHPD1-A-H5 Fc (Fc fusion, not shown: a dimerising Fc or GST; small tags and cut ends)
VHH: B27 VHH with P14V, A80Y, L82Q, L113Q
notes: as for B27
B33: MHPD1-A-H3 Fc (Fc fusion, not shown: a dimerising Fc or GST; small tags and cut ends)
VHH: B27 VHH with P14V, V79L, L113Q
notes: as for B27
B34: MHPD1-A-H8 Fc (Fc fusion, not shown: a dimerising Fc or GST; small tags and cut ends)
VHH: B27 VHH with P14V, E44G, H45L, L113Q
notes: as for B27
B35: MHPD1-A-H9 Fc (Fc fusion, not shown: a dimerising Fc or GST; small tags and cut ends)
VHH: B27 VHH with T19R, K87R, P88A
notes: also called humanized nanobody-Fc fusion protein

T2 sequence (Q15116 25-167 limits assumed): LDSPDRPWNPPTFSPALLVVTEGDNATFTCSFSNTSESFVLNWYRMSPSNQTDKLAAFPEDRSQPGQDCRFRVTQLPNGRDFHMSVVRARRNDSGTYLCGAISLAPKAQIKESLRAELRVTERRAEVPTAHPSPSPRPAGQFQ
T1 sequence (Q15116 25-167 limits assumed): as above

The first assay concerns the target T1, recombinant human PD-1-his protein (human, UniProt Q15116 25-167).
T1 construct: also called hPD-1-his; not shown: his tag
Nature of the assay: ELISA; PD-1-his coated 2 µg/mL, anti-human IgG Fc-HRP. As to the method: (§1) The plates were washed three times with PBST. 5% PBS-Milk was added and incubated at room temperature for 2 h. The plates were washed three times with PBST. All the nanobody-Fc fusion proteins were subject to 3-fold gradient dilutions with an initial concentration of 10 μg/mL, added into each well at 30 μL/well, and incubated at room temperature for 1 hr. The plates were washed three times with PBST. The secondary antibody Goat-Anti-Human-IgG-Fc-HRP was diluted at 1:8000, added into each well at 30 μL/well, and incubated at room temperature for 50 min. The plates were washed nine times with PBST. TMB was added into each well at 30 μL/well and developed at room temperature in dark for 1 min to 5 min. 2 M hydrochloric acid was added at 30 μL/well to stop the reaction. The OD450 absorbance value was read by a microplate reader. Graphpad Prism software was used to fit the curve and calculate the EC₅₀ value (see Table 7).
(In an ELISA, binding on a coated surface is turned into a signal by an enzyme label.)
On to B1, for which the EC50 amounted to 0.553 nM.
For B2, the EC50 was determined as 0.311 nM.
Turning to B3, the EC50 was determined as 0.14 nM.
As to B4, the EC50 is 0.16 nM.
Take B5: the EC50 stood at 0.169 nM.
Regarding B6, the EC50 turned out to be 0.2 nM.
With B7, the EC50 was 0.163 nM.
For B8, the EC50 turned out to be 0.222 nM.
Still for that read-out and setting: the value for B9 was 0.157 nM; that for B10 was 0.613 nM.
With B11, the EC50 came to 1.22 nM.

The target in the next assay is T1, recombinant human PD-1-his protein. Described as above. The source holds these as a separate data set. The procedure: as §1, with “PBS-Milk” for “PBS-Milk was added”, “3-folded” for “3-fold”, “dilution” for “dilutions”, “calculate” for “calculate the”, “values.” for “value (see Table 7).”
As to B12, the EC50 was 0.166 nM.
For B13, the EC50 is 0.198 nM.
Take B14: the EC50 was 0.175 nM.
Still for that read-out and setting: the value for B15 was 0.252 nM; that for B16 was 0.152 nM.
Regarding B17, the EC50 was determined as 0.134 nM.
For the molecule B18, the EC50 worked out at 0.146 nM.
Take B19: the EC50 worked out at 0.179 nM.
As for B20, the EC50 amounted to 0.421 nM.
As to B21, the EC50 was 0.193 nM.
With B22, the concentration giving a half-maximal response (EC50) amounted to 0.158 nM.
Take B23: the EC50 came to 0.171 nM.
With B24, the 50% effective concentration (EC50) came to 0.141 nM.
With B25, the EC50 amounted to 0.156 nM.
Turning to B26, the EC50 was 0.387 nM.

Another assay has as its target T2, recombinant human PD-1-Fc-Biotin (human, UniProt Q15116 25-167, biotin (site not stated)).
T2 construct: also called antigen protein human PD-1; not shown: Fc
Nature of the assay: competitive ELISA; PD-L1-mFc coated, 0.5 µg/mL PD-1-Fc-Biotin, streptavidin-HRP. As to the method: The plates were washed three times with PBST. 5% PBS-Milk was added and incubated at room temperature for 1 hr. All the nanobody-Fc fusion proteins were subject to 3-fold gradient dilutions with an initial concentration of 10 μg/mL, added into each well at 30 μL/well, and incubated at room temperature for 1 hr. […] The well plates were washed with PBST between incubations.
On to B1, for which the IC50 was 0.419 nM.
B2: the IC50 was 0.293 nM.
In the case of B3, the IC50 turned out to be 0.395 nM.
Consider B4, for which the IC50 is 0.407 nM.
Take B5: the IC50 stood at 0.323 nM.
As to B6, the IC50 worked out at 0.287 nM.
Take B7: the IC50 was 0.256 nM.
In the case of B8, the IC50 is 0.365 nM.
In the case of B9, the IC50 came out at 0.306 nM.
As to B10, the IC50 came out at 0.572 nM.
Regarding B11, the IC50 worked out at 0.852 nM.

A further assay has as its target T2, recombinant human PD-1-Fc-Biotin. Described as above. The source holds these as a separate data set. The procedure: The plates were washed three times with PBST. 5% PBS-Milk was added and incubated at room temperature for 1 hr. All the nanobody-Fc fusion proteins were subject to 3-fold gradient dilutions with an initial concentration of 10 μg/mL, added into each well at 30 μL/well, and incubated at room temperature for 1 hr. […] The plates were washed with PBST between incubations.
Regarding B12, the IC50 turned out to be 1.08 nM.
Consider B14, for which the IC50 amounted to 1.21 nM.
With B16, the IC50 came to 1.2 nM.
As for B17, the IC50 turned out to be 0.517 nM.
The same measure, in the same setting: the value for B18 was 0.944 nM; that for B19 was 1.61 nM; that for B22 was 0.85 nM.
With B23, the IC50 came out at 1.26 nM.
As for B24, the IC50 worked out at 1.54 nM.
On the same count and under the same terms, the value for B25 was 1.72 nM.

For another assay, the target named is T1, recombinant human PD-1-his protein. The experiment in a line: ELISA (first round of humanization); PD-1-his coated 2 µg/mL, anti-human IgG Fc-HRP. The procedure: 96-well ELISA plates were coated with 2 μg/mL of recombinant human PD-1-his antigen protein at 30 μL/well at 4° C. overnight. The plates were washed three times with PBST. 5% PBS-Milk was added and incubated at room temperature for 2 h. The plates were washed three times with PBST. All the nanobody-Fc fusion proteins were subject to 3-fold gradient dilutions with an initial concentration of 10 μg/mL, added into each well at 30 μL/well, and incubated at room temperature for 1 hr. The plates were washed three times with PBST. The secondary antibody Goat-Anti-Human-IgG-Fc-HRP (purchased from Sigma) was diluted at 1:8000, added into each well at 30 μL/well, and incubated at room temperature for 50 min. The plates were washed three times with PBST. TMB (purchased from SurModics) was added into each well at 30 μL/well and developed at room temperature in dark for 1 min to 5 min. 2 M hydrochloric acid was added at 30 μL/well to stop the reaction. The OD450 absorbance value was read by a microplate reader.
With B27, the EC50 was 0.24 µg/mL.
For the molecule B28, the EC50 was 0.22 µg/mL.
For the molecule B29, the EC50 was determined as 2.91 µg/mL.
As for B30, the EC50 came to 2.54 µg/mL.
Still for that read-out and setting: the value for B31 was 0.32 µg/mL.
On the same count and under the same terms, under B32 stands 0.35 µg/mL; under B33, 0.16 µg/mL; under B34, 0.2 µg/mL.
On to B35, for which the EC50 came out at 0.15 µg/mL.

(Values after US20240309093A1 (MINGHUI PHARMACEUTICAL HANGZHOU, published 2024).)
